The values that follow come from article doi:10.1101/124255.

The test deals with dynein-dynactin-BicD2N (DDB) complex (mouse | rat (endogenous in rat brain cytosol)) (UniProt Q921C5). In words: multicolor single-molecule TIRF microscopy.
Sequence of UniProt Q921C5 (Q921C5 whole entry, looked up, one chain of several): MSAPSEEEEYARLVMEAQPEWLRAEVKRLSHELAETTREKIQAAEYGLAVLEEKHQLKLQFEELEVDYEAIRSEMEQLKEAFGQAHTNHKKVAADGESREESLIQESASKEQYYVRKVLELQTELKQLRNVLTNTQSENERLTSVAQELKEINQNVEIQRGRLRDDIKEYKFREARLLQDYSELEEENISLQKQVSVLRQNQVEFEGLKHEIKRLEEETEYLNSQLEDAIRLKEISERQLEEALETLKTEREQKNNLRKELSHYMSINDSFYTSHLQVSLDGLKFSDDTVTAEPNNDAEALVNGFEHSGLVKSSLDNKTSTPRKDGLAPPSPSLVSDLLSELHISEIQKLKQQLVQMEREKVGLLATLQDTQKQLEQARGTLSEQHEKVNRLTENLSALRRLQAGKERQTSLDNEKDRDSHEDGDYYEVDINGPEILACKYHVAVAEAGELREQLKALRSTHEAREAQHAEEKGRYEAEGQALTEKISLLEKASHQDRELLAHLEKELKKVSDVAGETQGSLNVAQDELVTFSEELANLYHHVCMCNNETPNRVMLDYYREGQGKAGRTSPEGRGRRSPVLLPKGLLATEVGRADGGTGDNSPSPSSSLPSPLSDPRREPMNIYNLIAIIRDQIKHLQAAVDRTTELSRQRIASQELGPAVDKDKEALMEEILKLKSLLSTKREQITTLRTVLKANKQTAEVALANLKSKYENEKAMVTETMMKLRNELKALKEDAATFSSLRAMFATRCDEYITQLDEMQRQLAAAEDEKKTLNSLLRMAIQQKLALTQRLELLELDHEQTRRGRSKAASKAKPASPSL

B1: Rattus norvegicus LIS1 (PAFAH1b1), StrepII-SNAPf tagged, wild type (natural protein)
chain: MVLSQRQRDELNRAIADYLRSNGYEEAYSVFKKEAELDMNEELDKKYAGLLEKKWTSVIRLQKKVMELESKLNEAKEEFTSGGPLGQKRDPKEWIPRPPEKYALSGHRSPVTRVIFHPVFSVMVSASEDATIKVWDYETGDFERTLKGHTDSVQDISFDHSGKLLASCSADMTIKLWDFQGFECIRTMHGHDHNVSSVAIMPNGDHIVSASRDKTIKMWEVQTGYCVKTFTGHREWVRMVRPNQDGTLIASCSNDQTVRVWVVATKECKAELREHEHVVECISWAPESSYSSISEATGSETKKSGKPGPFLLSGSRDKTIKMWDVSTGMCLMTLVGHDNWVRGVLFHSGGKFILSCADDKTLRVWDYKNKRCMKTLNAHEHFVTSLDFHKTAPYVVTGSVDQTVKVWECR
modifications: SNAP dye (SNAP-Alexa 647 or SNAP-Surface 488) covalently on the SNAP tag
Take B1: the percent of DDB-L complexes with both 647- and 488-SNAP LIS1 was determined as 8%; the percent of DDB-L complexes with two LIS1 dimers was less than 24%; the percent of diffusive DDB complexes with a bound LIS1 was found to be 34%; the percent of processive DDB complexes with a bound LIS1 turned out to be 18%. The molecule also had a stoichiometry N (LIS1 dimer per DDB) of 1 and a stoichiometry N (LIS1 dimers per DDB) of 2.
